These results are taken from patent US20230212549A1 (3B PHARMACEUTICALS, published 2023).

Numbered stars: 1 amine (or outer) side, 2 acyl side, 3 side chain; on linkers, the order of the positions; unused ones are H or OH. Bridge positions count the residues as written; N and C are the ends. Square brackets hold non-standard residues; d marks the D form. Primed or numbered codes have the meaning given here. * marks the point of attachment. tMeBn(DOTA-PP) = 1,3,5-trimethylbenzylidene, two thioethers to Cys, third CH2 bound to one N of piperazine whose other N bears DOTA, O=C(O)CN1CCN(CC(=O)O)CCN(CC(=O)N2CCN(Cc3cc(C[*:1])cc(C[*:2])c3)CC2)CCN(CC(=O)O)CC1; Ttds″ = 1,13-diamino-4,7,10-trioxatridecan-succinamic acid spacer, O=C(CCC(=O)[*:2])NCCCOCCOCCOCCCN[*:1]; TBMB(SCH2CH2NH-DOTA) = O=C(O)CN1CCN(CC(=O)O)CCN(CC(=O)NCCSCc2cc(C[*:1])cc(C[*:2])c2)CCN(CC(=O)O)CC1; Ttds = 1,13-diamino-4,7,10-trioxatridecan-succinamic acid, O=C(CCC(=O)[*:2])NCCCOCCOCCOCCCN[*:1]; DOTA = O=C(O)CN1CCN(CC(=O)O)CCN(CC(=O)*)CCN(CC(=O)O)CC1; mXylylene = c1cc(C[*:1])cc(C[*:2])c1; Pentanesulfonyl = CCCCCS(=O)(=O)*; NMeF = CN[C@@H](Cc1ccccc1)C(=O)O; Tic = O=C(O)[C@@H]1Cc2ccccc2CN1; Nle = CCCC[C@H](N)C(=O)O; Hexanoyl = CCCCCC(=O)* Bounds are passed on as bounds.

B1: Hex-[Cys(tMeBn(InDOTA-AET))-Pro-Pro-Thr-Gln-Phe-AET] (peptide)
peptide: CPPTQFX
modifications: not fully specified; N-term Hex; X7 = AET (2-aminoethanethiol, no carboxyl group); Cys1/AET7 thioether-bridged by tMeBn carrying InDOTA-AET (indium complex)
notes: also called 3BP-3713
B2: Hex-[Cys(tMeBn(DOTA-AET))-Pro-Pro-Thr-Gln-Phe-Cys]-asp-NH2 (peptide)
peptide: CPPTQFCD
modifications: N-term Hex; Cys1/Cys7 thioether-bridged by tMeBn carrying DOTA-AET; D-Asp8; C-term amide
notes: also called 3BP-3681
B3: Hex-[Cys(tMeBn(EuDOTA-PP))-Pro-Pro-Thr-Gln-Phe-Cys]-Asp-NH2 (peptide)
peptide: Hexanoyl-CPPTQFCD-NH2
modifications: linker 1-7 via tMeBn(EuDOTA-PP); also: europium complex of DOTA
notes: also called 3BP-3661
B4: Ac-met-[Cys(3MeBn)-Pro-Pro-Thr-Glu-Phe-Cys]-Asp-His-Phe-Arg-Asp-NH2 (peptide)
peptide: Ac-[dM]CPPTEFCDHFRD-NH2
modifications: linker 2-8 via mXylylene
SMILES: CSCC[C@@H](NC(C)=O)C(=O)N[C@H]1CSCc2cccc(c2)CSC[C@@H](C(=O)N[C@@H](CC(=O)O)C(=O)N[C@@H](Cc2c[nH]cn2)C(=O)N[C@@H](Cc2ccccc2)C(=O)N[C@@H](CCCNC(=N)N)C(=O)N[C@@H](CC(=O)O)C(N)=O)NC(=O)[C@H](Cc2ccccc2)NC(=O)[C@H](CCC(=O)O)NC(=O)[C@H]([C@@H](C)O)NC(=O)[C@@H]2CCCN2C(=O)[C@@H]2CCCN2C1=O
notes: also called 3BP-3187
B5: Ac-Met-[cys(3MeBn)-Pro-Pro-Thr-Glu-Phe-Cys]-Asp-His-Phe-Arg-Asp-NH2 (peptide)
peptide: Ac-M[dC]PPTEFCDHFRD-NH2
modifications: linker 2-8 via mXylylene
SMILES: CSCC[C@H](NC(C)=O)C(=O)N[C@@H]1CSCc2cccc(c2)CSC[C@@H](C(=O)N[C@@H](CC(=O)O)C(=O)N[C@@H](Cc2c[nH]cn2)C(=O)N[C@@H](Cc2ccccc2)C(=O)N[C@@H](CCCNC(=N)N)C(=O)N[C@@H](CC(=O)O)C(N)=O)NC(=O)[C@H](Cc2ccccc2)NC(=O)[C@H](CCC(=O)O)NC(=O)[C@H]([C@@H](C)O)NC(=O)[C@@H]2CCCN2C(=O)[C@@H]2CCCN2C1=O
notes: also called 3BP-3175
B6: Pentyl-SO2-[Cys(tMeBn(DOTA-PP))-Pro-Pro-Thr-Gln-Phe-Cys]-Asp-NH2 (peptide)
peptide: Pentanesulfonyl-CPPTQFCD-NH2
modifications: linker 1-7 via tMeBn(DOTA-PP)
SMILES: CCCCCS(=O)(=O)N[C@H]1CSCc2cc(cc(CN3CCN(C(=O)CN4CCN(CC(=O)O)CCN(CC(=O)O)CCN(CC(=O)O)CC4)CC3)c2)CSC[C@@H](C(=O)N[C@@H](CC(=O)O)C(N)=O)NC(=O)[C@H](Cc2ccccc2)NC(=O)[C@H](CCC(N)=O)NC(=O)[C@H]([C@@H](C)O)NC(=O)[C@@H]2CCCN2C(=O)[C@@H]2CCCN2C1=O
notes: also called 3BP-3692
B7: Ac-Met-[Cys(3MeBn)-Pro-Pro-Thr-Glu-Phe-Cys]-Asp-His-Nmf-Arg-Asp-NH2 (peptide)
peptide: Ac-MCPPTEFCDH[NMeF]RD-NH2
modifications: linker 2-8 via mXylylene
SMILES: CSCC[C@H](NC(C)=O)C(=O)N[C@H]1CSCc2cccc(c2)CSC[C@@H](C(=O)N[C@@H](CC(=O)O)C(=O)N[C@@H](Cc2c[nH]cn2)C(=O)N(C)[C@@H](Cc2ccccc2)C(=O)N[C@@H](CCCNC(=N)N)C(=O)N[C@@H](CC(=O)O)C(N)=O)NC(=O)[C@H](Cc2ccccc2)NC(=O)[C@H](CCC(=O)O)NC(=O)[C@H]([C@@H](C)O)NC(=O)[C@@H]2CCCN2C(=O)[C@@H]2CCCN2C1=O
notes: also called 3BP-3188
B8: DOTA-Ttds-Nle-[Cys(3MeBn)-Pro-Pro-Thr-Glu-Phe-Cys]-Asp-His-Phe-Arg-Asp-NH2 (peptide)
peptide: {DOTA}-[Ttds][Nle]CPPTEFCDHFRD-NH2
modifications: linker 3-9 via mXylylene
SMILES: CCCC[C@H](NC(=O)CCC(=O)NCCCOCCOCCOCCCNC(=O)CN1CCN(CC(=O)O)CCN(CC(=O)O)CCN(CC(=O)O)CC1)C(=O)N[C@H]1CSCc2cccc(c2)CSC[C@@H](C(=O)N[C@@H](CC(=O)O)C(=O)N[C@@H](Cc2c[nH]cn2)C(=O)N[C@@H](Cc2ccccc2)C(=O)N[C@@H](CCCNC(=N)N)C(=O)N[C@@H](CC(=O)O)C(N)=O)NC(=O)[C@H](Cc2ccccc2)NC(=O)[C@H](CCC(=O)O)NC(=O)[C@H]([C@@H](C)O)NC(=O)[C@@H]2CCCN2C(=O)[C@@H]2CCCN2C1=O
B9: Hex-[Cys(tMeBn(DOTA-AET))-Pro-Pro-Thr-Gln-Phe-Cys]-Asp-OH (peptide)
peptide: Hexanoyl-CPPTQFCD-OH
modifications: linker 1-7 via TBMB(SCH2CH2NH-DOTA)
SMILES: CCCCCC(=O)N[C@H]1CSCc2cc(CSCCNC(=O)CN3CCN(CC(=O)O)CCN(CC(=O)O)CCN(CC(=O)O)CC3)cc(c2)CSC[C@@H](C(=O)N[C@@H](CC(=O)O)C(=O)O)NC(=O)[C@H](Cc2ccccc2)NC(=O)[C@H](CCC(N)=O)NC(=O)[C@H]([C@@H](C)O)NC(=O)[C@@H]2CCCN2C(=O)[C@@H]2CCCN2C1=O
notes: also called 3BP-3665
B10: DOTA-Ttds-Met-[Cys(3MeBn)-Pro-Pro-Thr-Glu-Phe-Cys]-Asp-His-Phe-Arg-Asp-NH2 (peptide)
peptide: {DOTA}-[Ttds]MCPPTEFCDHFRD-NH2
modifications: linker 3-9 via mXylylene
SMILES: CSCC[C@H](NC(=O)CCC(=O)NCCCOCCOCCOCCCNC(=O)CN1CCN(CC(=O)O)CCN(CC(=O)O)CCN(CC(=O)O)CC1)C(=O)N[C@H]1CSCc2cccc(c2)CSC[C@@H](C(=O)N[C@@H](CC(=O)O)C(=O)N[C@@H](Cc2c[nH]cn2)C(=O)N[C@@H](Cc2ccccc2)C(=O)N[C@@H](CCCNC(=N)N)C(=O)N[C@@H](CC(=O)O)C(N)=O)NC(=O)[C@H](Cc2ccccc2)NC(=O)[C@H](CCC(=O)O)NC(=O)[C@H]([C@@H](C)O)NC(=O)[C@@H]2CCCN2C(=O)[C@@H]2CCCN2C1=O
B11: DOTA-Ttds-Leu-[Cys(3MeBn)-Pro-Pro-Thr-Glu-Phe-Cys]-Asp-His-Phe-Arg-Asp-NH2 (peptide)
peptide: {DOTA}-[Ttds″]LCPPTEFCDHFRD-NH2
modifications: linker 3-9 via mXylylene
SMILES: CC(C)C[C@H](NC(=O)CCC(=O)NCCCOCCOCCOCCCNC(=O)CN1CCN(CC(=O)O)CCN(CC(=O)O)CCN(CC(=O)O)CC1)C(=O)N[C@H]1CSCc2cccc(c2)CSC[C@@H](C(=O)N[C@@H](CC(=O)O)C(=O)N[C@@H](Cc2c[nH]cn2)C(=O)N[C@@H](Cc2ccccc2)C(=O)N[C@@H](CCCNC(=N)N)C(=O)N[C@@H](CC(=O)O)C(N)=O)NC(=O)[C@H](Cc2ccccc2)NC(=O)[C@H](CCC(=O)O)NC(=O)[C@H]([C@@H](C)O)NC(=O)[C@@H]2CCCN2C(=O)[C@@H]2CCCN2C1=O
notes: also called 3BP-3172
B12: Ac-Met-[Cys(3MeBn)-Pro-Pro-Thr-Glu-Phe-Cys]-Asp-His-Tic-Arg-Asp-NH2 (peptide)
peptide: Ac-MCPPTEFCDH[Tic]RD-NH2
modifications: linker 2-8 via mXylylene
SMILES: CSCC[C@H](NC(C)=O)C(=O)N[C@H]1CSCc2cccc(c2)CSC[C@@H](C(=O)N[C@@H](CC(=O)O)C(=O)N[C@@H](Cc2c[nH]cn2)C(=O)N2Cc3ccccc3C[C@H]2C(=O)N[C@@H](CCCNC(=N)N)C(=O)N[C@@H](CC(=O)O)C(N)=O)NC(=O)[C@H](Cc2ccccc2)NC(=O)[C@H](CCC(=O)O)NC(=O)[C@H]([C@@H](C)O)NC(=O)[C@@H]2CCCN2C(=O)[C@@H]2CCCN2C1=O
notes: also called 3BP-3189

For the first assay, the target named is T1, fibroblast activation protein (FAP) on FAP-expressing human WI-38 fibroblasts (human, UniProt Q12884 1-760).
T1 construct: also called human FAP
Description: competitive FACS, WI-38 cells, vs Cy5 tracer m3; A = pIC50 >8.0.
Take B1: the “pIC50 Category (FACS)” value is over 8 pIC50.
Still for that read-out and setting: the same measure for B2: over 8 pIC50; for B3: over 8 pIC50.
Regarding B4, the “pIC50 Category (FACS)” value is over 8 pIC50.
The same measure, in the same setting: the same measure for B5: over 8 pIC50; for B6: over 8 pIC50.
Regarding B7, the “pIC50 Category (FACS)” value is over 8 pIC50.
In the case of B8, the “pIC50 Category (FACS)” value is over 8 pIC50.
As for B9, the “pIC50 Category (FACS)” value was over 8 pIC50.
As for B10, the “pIC50 Category (FACS)” value was over 8 pIC50.
As for B11, the “pIC50 Category (FACS)” value was over 8 pIC50.
With B12, the “pIC50 Category (FACS)” value was over 8 pIC50.

In another assay the target is Recombinant human FAP (R&D systems, #3715-SE) (human, UniProt Q12884 26-760). Description: cell-based or functional assay.
Turning to B1, the “pIC50 Category (Activity)” value was over 8 pIC50.
Take B2: the “pIC50 Category (Activity)” value is over 8 pIC50.
Same read-out and setting: next, B3: over 8 pIC50; B4: over 8 pIC50; B5: over 8 pIC50.
Regarding B6, the “pIC50 Category (Activity)” value is over 8 pIC50.
As for B7, the “pIC50 Category (Activity)” value is over 8 pIC50.
On to B8, for which the “pIC50 Category (Activity)” value was over 8 pIC50.
The same measure, in the same setting: next, B9: over 8 pIC50; B10: over 8 pIC50.
With B11, the “pIC50 Category (Activity)” value is over 8 pIC50.
For B12, the “pIC50 Category (Activity)” value is over 8 pIC50.
